Results taken from patent publication US20180282403A1, “AGENTS FOR REDUCING THE ACTIVITY OF GDF15” (GENAGON THERAPEUTICS AB, priority 2015, published 2018).

Experiments:
Format in all cases: cell-based
[1] = tested on: SMAD2; assay: Detection of phosphorylated SMAD2 in NK-92 cells; conditions: GDF15 40 min
Method: (§1) GDF15 has been reported in the literature to mediate downstream signalling resembling both the canonical (SMAD) pathway mediated by ALK5(TGFBRI) kinase domain, and non-canonical TGFβ receptor signalling, such as phosphorylation of GSK3b. In order to investigate if CLPTM1 was involved in this we developed a set of in situ PLA assays to determine the dynamics between CLPTM1 and the TGFβ receptors and components downstream of the TGFβ receptors. NK-92 cells were treated with GDF15 for 40 min to detect phosphorylated SMAD proteins such as SMAD2 in the nucleus. […] From previous experiments with TGFB1 stimulation we know that the assay (pSMAD2) was functional.

[2] = tested on: QRFPR; assay: In situ PLA detection of QRFPR at the cell surface in U2OS osteosarcoma cells; conditions: U2OS cells, GDF15 alone; FIG. 9E
From the text: A-D) In situ PLA detection of the Rab11-QRFPR complex following exposure of MCF7 cells to GDF15. A) +Ctrl peptide. B) +QRFPR extracellular N-terminal peptide. C-D) +QRFPR extracellular loop3 (domain 4) peptide. The level of the Rab11-QRFPR complex is reduced by the peptide from extracellular loop3 of QRFPR. E) in situ PLA detection of QRFPR in U2OS osteosarcoma cells.
We choose to use this assay as a way to investigate if the activity of GDF15 could be inhibited by various agents. […] GDF15-induced formation of RAB11/QRFPR endosomes is inhibited by QRFPR peptides (FIG. 9A-D). Equal amounts of a mastermix of GDF15 was aliquoted and pre-incubated in PBS with the various receptor fragment before addition to cells. Sequentially, the cells were treated with either PBS, GDF15 or GDF15/QRFPR-derived peptide mixes.

[3] = biological target: T1, CLPTM1 (Homo sapiens, UniProt O96005); assay: In situ PLA detection of the CLPTM1-TGFBRI complex in NK-92 cells; conditions: GDF15 stimulation, FIG. 14
T1 construct: endogenous in cells; host or cells: NK-92 cells
T1 sequence (O96005 1-669): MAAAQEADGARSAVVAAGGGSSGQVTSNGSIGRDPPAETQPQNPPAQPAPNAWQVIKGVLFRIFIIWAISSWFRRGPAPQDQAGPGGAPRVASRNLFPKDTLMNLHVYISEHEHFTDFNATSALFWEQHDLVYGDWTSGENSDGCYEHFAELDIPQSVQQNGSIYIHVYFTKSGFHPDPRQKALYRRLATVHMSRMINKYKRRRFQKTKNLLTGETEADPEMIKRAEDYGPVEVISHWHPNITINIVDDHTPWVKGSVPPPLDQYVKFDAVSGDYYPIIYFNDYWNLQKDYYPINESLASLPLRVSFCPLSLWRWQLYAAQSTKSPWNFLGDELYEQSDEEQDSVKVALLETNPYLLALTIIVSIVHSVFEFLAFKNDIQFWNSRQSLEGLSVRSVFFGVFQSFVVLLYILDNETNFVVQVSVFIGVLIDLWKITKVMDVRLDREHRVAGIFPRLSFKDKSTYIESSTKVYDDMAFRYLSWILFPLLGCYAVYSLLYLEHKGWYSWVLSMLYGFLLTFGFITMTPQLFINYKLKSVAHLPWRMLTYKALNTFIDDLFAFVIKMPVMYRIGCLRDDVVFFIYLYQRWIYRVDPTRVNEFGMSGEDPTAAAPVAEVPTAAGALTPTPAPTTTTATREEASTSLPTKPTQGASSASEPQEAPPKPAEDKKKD
Method: as §1

[4] = biological target: T1, CLPTM1; assay: In situ PLA detection of the CLPTM1-TGFBRII complex in NK cells; conditions: GDF15 treatment; FIG. 15
From the text: It was not known whether TGFBRI localised with CLPTM1 independently from the corresponding Type II receptor TGFBRII, or whether the TGFBRI-TGFBRII heterocomplex associated with CLPTM1 upon GDF15 stimulation. In order to determine this, a second in situ PLA assay was developed, using antibodies towards TGFBRII in concert with CLPTM1 antibodies from another species. […] (FIG. 15)

[5] = biological target: T1, CLPTM1; assay: Detection of phosphorylated GSK3b (9/21) in NK-92 cells (in situ PLA, Western blot); conditions: GDF15 in the presence of control antibody, FIG. 16
Method: A-C) In situ PLA detection of phosphorylated GSK3b (GSK3b-p(9/21) using a pair of proximity probes A) Negative control cells with no added GDF15. B) Cells after exposure to GDF15 and control antibody. C) Cells after exposure to GDF15 following pre-incubation with a monoclonal antibody targeting the extracellular domain of CLPTM1 D) Western Blot indicating the levels of phosphorylated GSKb (p-GSKb). Lane 1—No GDF15. Lane 2—GDF15 stim+ ctrl ab. Lane 3 GDF15 stim+ mAb mouse (antibody used in in situ PLA experiment).
The effect of antibodies binding CLPTM1 on inhibiting GDF15 induced downstream signalling through the TGFB heterotetrameric complex was assessed by detecting phosphorylated GSK3b-pGSK3b(9/21) in an in situ PLA assay. Phosphorylation of GSK3b is known to cause immunosuppressive effects i.e. suppress immune cell function.

CLPTM1 proximity to TGFBRII [4]: induced CLPTM1 proximity to TGFBRII
9/21 phosphorylation of GSK3b [5]: induces 9/21 phosphorylation of GSK3b
Substance: GDF15: Growth and differentiation factor 15, from mammalian source or recombinant from E. coli (Abcam, Biovision)
c-terminal phosphorylated SMAD 2 [1]: failed to detect c-terminal phosphorylated SMAD 2
level of QRFPR at the cell surface [2]: reduced by GDF15
proximity between CLPTM1 and TGFBRI(ALK5) [3]: induced proximity between CLPTM1 and TGFBRI(ALK5)
